Measurements taken from US12195506B2, “Immunotherapy with A*01 restricted peptides and combination of peptides against cancers and related methods” (Immatics Biotechnologies GmbH, priority 2018, dated 2025).

Target: HLA-A*01:01 (Homo sapiens, UniProt P04439, A114D/A174V/A182V/D101N/D185E/E176A/E190D/L180R/Q94H/R68K/S129P/T187R/V100A/V91M/W191G)
Assay: MHC binding assay: UV-ligand exchange, ELISA of stabilized MHC complexes (peptide exchange yield)
Settings: binding to HLA-A*01:01, UV-ligand exchange
Method in brief: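 Peptide–MHC complexes were formed by UV-induced exchange of a photocleavable ligand for the test peptide. Exchange yield was measured by streptavidin-capture ELISA of 100-fold diluted complexes, detected with HRP anti-β2m at A450. Refolded HLA-A*02:01/MLA-001 monomers at 15-500 ng/ml served as standards.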

Substance	Peptide exchange
272 (IPQDECLRY; listed as Homo sapiens) [compound 272]	+++ (>50 = +++)
273 (CGPNEINHFY; listed as Homo sapiens) [compound 273]	++ (>20% = ++)
274 (YADIHGDLL; listed as Homo sapiens) [compound 274]	+++ (>50 = +++)
275 (ESDEMENLLTY; listed as Homo sapiens) [compound 275]	+++ (>50 = +++)
276 (QITSFASGTSY; listed as Homo sapiens) [compound 276]	+++ (>50 = +++)
277 (LPAPGFLFY; listed as Homo sapiens) [compound 277]	++ (>20% = ++)
278 (AATVKSDIY; listed as Homo sapiens) [compound 278]	++ (>20% = ++)
279 (LMTVLLKY; listed as Homo sapiens) [compound 279]	+++ (>50 = +++)
280 (TTEMVSNESVDY; listed as Homo sapiens) [compound 280]	++++ (>75% = ++++)
281 (YPDLSELLM; listed as Homo sapiens) [compound 281]	++ (>20% = ++)
282 (QAMPSWPTAAY; listed as Homo sapiens) [compound 282]	++ (>20% = ++)
283 (ETILVSSSY; listed as Homo sapiens) [compound 283]	++ (>20% = ++)
284 (TCSHTFVYY; listed as Homo sapiens) [compound 284]	++ (>20% = ++)
285 (VLPHHSEGACVY; listed as Homo sapiens) [compound 285]	+++ (>50 = +++)
286 (ATDMEGNLNY; listed as Homo sapiens) [compound 286]	+++ (>50 = +++)
287 (ENSIEDLQY; listed as Homo sapiens) [compound 287]	+++ (>50 = +++)
288 (TEEKFVSY; listed as Homo sapiens) [compound 288]	+ (>10% =+)
289 (YTSHEDIGY; listed as Homo sapiens) [compound 289]	++++ (>75% = ++++)
290 (GQFTGTAGACRY; listed as Homo sapiens) [compound 290]	++ (>20% = ++)
291 (TSDVTGSLTY; listed as Homo sapiens) [compound 291]	++++ (>75% = ++++)
292 (VLDFAPPGASAY; listed as Homo sapiens) [compound 292]	++++ (>75% = ++++)
294 (MMEMEGMY; listed as Homo sapiens) [compound 294]	+++ (>50 = +++)
295 (GQRLDEAMISY; listed as Homo sapiens) [compound 295]	+++ (>50 = +++)
296 (HMLAAMAY; listed as Homo sapiens) [compound 296]	++ (>20% = ++)
297 (RLDEAMISY; listed as Homo sapiens) [compound 297]	+++ (>50 = +++)
298 (KFDVINHYF; listed as Homo sapiens) [compound 298]	++ (>20% = ++)
299 (EVDSVALSL; listed as Homo sapiens) [compound 299]	++ (>20% = ++)

Substance	Peptide exchange
300 (VSINPNSGDIY; listed as Homo sapiens) [compound 300]	+++ (>50 = +++)
301 (ESQTCASDY; listed as Homo sapiens) [compound 301]	+++ (>50 = +++)
302 (FYLSTPENYHY; listed as Homo sapiens) [compound 302]	+++ (>50 = +++)
303 (GFGGLSSQGVYY; listed as Homo sapiens) [compound 303]	+++ (>50 = +++)
304 (FSENLIYTYI; listed as Homo sapiens) [compound 304]	++ (>20% = ++)
305 (YADLLIYTY; listed as Homo sapiens) [compound 305]	++++ (>75% = ++++)
306 (KSFETTVRY; listed as Homo sapiens) [compound 306]	++ (>20% = ++)
307 (DTDDRELRY; listed as Homo sapiens) [compound 307]	+++ (>50 = +++)
308 (ELAAGQVVY; listed as Homo sapiens) [compound 308]	+ (>10% =+)
309 (EVDRNLIQY; listed as Homo sapiens) [compound 309]	+++ (>50 = +++)
310 (KAFQELGVRY; listed as Homo sapiens) [compound 310]	++ (>20% = ++)
311 (TVTDGTHTDFY; listed as Homo sapiens) [compound 311]	++ (>20% = ++)
312 (VTDGINPLI; listed as Homo sapiens) [compound 312]	++ (>20% = ++)
313 (VTDGTHTDFY; listed as Homo sapiens) [compound 313]	+++ (>50 = +++)
314 (PPEANSLQGALY; listed as Homo sapiens) [compound 314]	++ (>20% = ++)
315 (VLKIELETY; listed as Homo sapiens) [compound 315]	+++ (>50 = +++)
316 (YTCEECGQAF; listed as Homo sapiens) [compound 316]	++ (>20% = ++)
317 (EDLLEVLDMY; listed as Homo sapiens) [compound 317]	++ (>20% = ++)
318 (YMTSMALNY; listed as Homo sapiens) [compound 318]	+++ (>50 = +++)
319 (FTDPHIITF; listed as Homo sapiens) [compound 319]	++++ (>75% = ++++)
320 (QALQDKLQTFY; listed as Homo sapiens) [compound 320]	++ (>20% = ++)
321 (DGIADASNLSYY; listed as Homo sapiens) [compound 321]	++ (>20% = ++)
322 (FSELNPLALY; listed as Homo sapiens) [compound 322]	++++ (>75% = ++++)
323 (KTLQKPVLPLY; listed as Homo sapiens) [compound 323]	++ (>20% = ++)
324 (RTGIFPYRF; listed as Homo sapiens) [compound 324]	++ (>20% = ++)
325 (LQKPVLPLY; listed as Homo sapiens) [compound 325]	++ (>20% = ++)
326 (STSRLTLFS; listed as Homo sapiens) [compound 326]	++ (>20% = ++)

Substance	Peptide exchange
327 (IMLSVDQHLY; listed as Homo sapiens) [compound 327]	+++ (>50 = +++)
328 (LLDEDNNIKL; listed as Homo sapiens) [compound 328]	++ (>20% = ++)
329 (NTDSMTLNNTAY; listed as Homo sapiens) [compound 329]	++++ (>75% = ++++)
330 (EGELSEGEHWY; listed as Homo sapiens) [compound 330]	+++ (>50 = +++)
331 (YLYQAPGSLALY; listed as Homo sapiens) [compound 331]	++++ (>75% = ++++)
333 (LSDPQAELQFY; listed as Homo sapiens) [compound 333]	++++ (>75% = ++++)
334 (PSSMPECLSY; listed as Homo sapiens) [compound 334]	++++ (>75% = ++++)
335 (PSSMPECLSYY; listed as Homo sapiens) [compound 335]	+++ (>50 = +++)
336 (ATNIQLNIDTY; listed as Homo sapiens) [compound 336]	+++ (>50 = +++)
337 (FTESNQYNIY; listed as Homo sapiens) [compound 337]	++++ (>75% = ++++)
338 (YSPDSFNVSW; listed as Homo sapiens) [compound 338]	++ (>20% = ++)
339 (ESMDIFPLGW; listed as Homo sapiens) [compound 339]	++ (>20% = ++)
340 (SVDSNLVAY; listed as Homo sapiens) [compound 340]	+++ (>50 = +++)
341 (PANYLGKMTY; listed as Homo sapiens) [compound 341]	+++ (>50 = +++)
342 (QTYMDGLLHY; listed as Homo sapiens) [compound 342]	++++ (>75% = ++++)
343 (YFGNYFTYY; listed as Homo sapiens) [compound 343]	+ (>10% =+)
344 (AVNALQSVY; listed as Homo sapiens) [compound 344]	++ (>20% = ++)
345 (NTMDAVPRIDHY; listed as Homo sapiens) [compound 345]	++++ (>75% = ++++)
346 (VAGLEAGVLY; listed as Homo sapiens) [compound 346]	++ (>20% = ++)
347 (SADHPGLTF; listed as Homo sapiens) [compound 347]	++ (>20% = ++)
348 (DSTDGCLLSF; listed as Homo sapiens) [compound 348]	++ (>20% = ++)
349 (HLLSVSLYY; listed as Homo sapiens) [compound 349]	+ (>10% =+)
350 (LTDPQVSYV; listed as Homo sapiens) [compound 350]	+++ (>50 = +++)
351 (VLDPMLDFY; listed as Homo sapiens) [compound 351]	++++ (>75% = ++++)
352 (YPVVVAESMY; listed as Homo sapiens) [compound 352]	++ (>20% = ++)
